Assay results from PMC2138209.

Target: 7S subunit of the lemon shark 19S immunoglobulin (lemon shark, Negaprion brevirostris)
Assay: AUC

stoichiometry N: 5
Substance: 7S subunit of the lemon shark 19S immunoglobulin (complex)
